The record followed here is patent US20230365701A1 (Pfizer, published 2023).

In one assay the target is T1, human LTBR protein (human, UniProt P36941 31-227, limits assumed).
T1 construct: Protein used for the KD, binning and crystallization; In the crystal the entire extracellular domain was ordered; also called lymphotoxin beta receptor; TNFR3
The experiment in a line: not stated at this place (SPR by the heading before paragraph 293, where the value is repeated); human LTBR.

Assay [1] has as its target T2, human LTBR on cells (endogenous on HUVEC, HT29, primary human fibroblasts and moDC; LTBR-expressing HEK293) (human, UniProt P36941 31-435). The experiment in a line: cell-based or functional assay.
Assay [2] concerns the target cynomolgus monkey LTBR on primary cynomolgus monkey fibroblasts (cynomolgus monkey, UniProt P36941 1-435 (human entry)). The experiment in a line: cell-based or functional assay.
Assay [3] deals with chimeric LTBR with a human extracellular domain and mouse transmembrane and intracellular domains, on CT26 … (human; mouse). Put plainly: cell-based or functional assay.
chimeric LTBR with a human extracellular domain and mouse transmembrane and intracellular domains, on CT26 … (human; mouse), sequence (chain, as listed by the source mutant limits assumed): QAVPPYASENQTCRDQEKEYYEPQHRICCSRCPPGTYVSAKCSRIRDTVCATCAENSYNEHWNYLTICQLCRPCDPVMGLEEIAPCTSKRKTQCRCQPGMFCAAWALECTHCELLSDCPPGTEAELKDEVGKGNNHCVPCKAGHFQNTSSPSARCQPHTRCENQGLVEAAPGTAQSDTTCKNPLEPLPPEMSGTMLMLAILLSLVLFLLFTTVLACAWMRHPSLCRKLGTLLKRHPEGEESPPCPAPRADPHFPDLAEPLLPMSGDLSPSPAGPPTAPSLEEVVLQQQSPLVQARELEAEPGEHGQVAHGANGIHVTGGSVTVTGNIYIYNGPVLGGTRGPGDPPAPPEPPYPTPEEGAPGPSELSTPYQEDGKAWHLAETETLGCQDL
Assay [4] deals with T2, human LTBR on cells (endogenous on …). The experiment in a line: flow cytometry with AF647-labeled antibody on HUVEC (endogenous human LTBR), 1.5 hours on ice. The procedure: (§1) Endogenous human LTBR binding: 1E01 binding to endogenous LTBR on human endothelial cells (human umbilical vein endothelial cells (HUVEC)) and tumor cells (HT29 human colorectal carcinoma cells) was assessed in a flow cytometry-based assay using AF647-labeled antibody and Quantbrite™ beads. Cells were incubated with antibody for 1.5 hours on ice prior to endpoint analysis. Results confirmed the binding of 1E01 to endogenous human LTBR.

For assay [5] the target is unchanged. Put plainly: flow cytometry with AF647-labeled antibody on HT29 cells (endogenous human LTBR), 1.5 hours on ice. As to the method:
as §1

T2 sequence (P36941 31-435 limits assumed): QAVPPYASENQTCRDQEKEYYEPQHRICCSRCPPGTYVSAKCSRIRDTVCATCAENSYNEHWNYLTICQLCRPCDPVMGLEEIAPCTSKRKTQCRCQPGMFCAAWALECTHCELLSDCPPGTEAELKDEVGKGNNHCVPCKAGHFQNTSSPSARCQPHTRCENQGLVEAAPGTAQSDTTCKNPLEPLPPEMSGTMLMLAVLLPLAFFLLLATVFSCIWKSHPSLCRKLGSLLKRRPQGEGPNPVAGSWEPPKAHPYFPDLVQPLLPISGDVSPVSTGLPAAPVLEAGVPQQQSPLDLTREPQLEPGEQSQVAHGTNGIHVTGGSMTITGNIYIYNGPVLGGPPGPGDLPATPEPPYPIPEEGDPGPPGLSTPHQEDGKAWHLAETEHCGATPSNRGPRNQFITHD
T1 sequence (P36941 31-227 limits assumed): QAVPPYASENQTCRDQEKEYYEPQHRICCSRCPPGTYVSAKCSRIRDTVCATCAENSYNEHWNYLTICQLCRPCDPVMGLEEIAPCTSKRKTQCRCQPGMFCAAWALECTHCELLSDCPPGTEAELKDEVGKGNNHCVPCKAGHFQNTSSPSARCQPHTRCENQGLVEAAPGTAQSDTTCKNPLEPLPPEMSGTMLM
cynomolgus monkey LTBR on primary cynomolgus monkey fibroblasts, sequence (P36941 other isoform, or with tags, fused parts or gaps limits assumed): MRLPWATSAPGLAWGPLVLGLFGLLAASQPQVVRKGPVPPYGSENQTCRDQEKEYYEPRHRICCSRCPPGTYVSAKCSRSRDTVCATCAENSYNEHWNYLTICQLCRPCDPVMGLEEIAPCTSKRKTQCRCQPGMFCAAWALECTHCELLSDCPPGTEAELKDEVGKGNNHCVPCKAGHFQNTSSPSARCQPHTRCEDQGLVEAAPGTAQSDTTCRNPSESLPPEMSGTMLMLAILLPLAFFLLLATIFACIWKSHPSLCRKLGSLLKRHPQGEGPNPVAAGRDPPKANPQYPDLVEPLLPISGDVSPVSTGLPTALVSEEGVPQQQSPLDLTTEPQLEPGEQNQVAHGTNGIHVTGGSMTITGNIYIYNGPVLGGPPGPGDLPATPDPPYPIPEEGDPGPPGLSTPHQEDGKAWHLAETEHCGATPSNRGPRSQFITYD

B1: anti-LTBR clone 1E01 (Fab clone "1E01") (Fab, V domains shown)
VH: QVQLVQSGAEVKKPGSSVKVSCKASGGTFSSYFWSWVRQAPGQGLEWMGRFYSGGSANYNPSLKERVTITADESTSTAYMELSSLRSEDTAVYYCARERRGYSGGFEIWGQGTLVTVSS
VL: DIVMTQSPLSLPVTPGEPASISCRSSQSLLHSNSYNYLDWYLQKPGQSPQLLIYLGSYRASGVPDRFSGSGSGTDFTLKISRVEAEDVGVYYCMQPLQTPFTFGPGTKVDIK
notes: Only VH and VL are tied to the clone; also called 1E01 antibody
B1 yielded an equilibrium dissociation constant (Kd) in the assay with human LTBR protein of 115 nM.

B2: 1E01 tetravalent antibody (antibody, human IgG1, kappa)
heavy: QVQLVQSGAEVKKPGSSVKVSCKASGGTFSSYFWSWVRQAPGQGLEWMGRFYSGGSANYNPSLKERVTITADESTSTAYMELSSLRSEDTAVYYCARERRGYSGGFEIWGQGTLVTVSSASTKGPSVFPLAPSSKSTSGGTAALGCLVKDYFPEPVTVSWNSGALTSGVHTFPAVLQSSGLYSLSSVVTVPSSSLGTQTYICNVNHKPSNTKVDKKVEPKSCGGGGSQVQLVQSGAEVKKPGSSVKVSCKASGGTFSSYFWSWVRQAPGQGLEWMGRFYSGGSANYNPSLKERVTITADESTSTAYMELSSLRSEDTAVYYCARERRGYSGGFEIWGQGTLVTVSSASTKGPSVFPLAPSSKSTSGGTAALGCLVKDYFPEPVTVSWNSGALTSGVHTFPAVLQSSGLYSLSSVVTVPSSSLGTQTYICNVNHKPSNTKVDKKVEPKSCDKTHTCPPCPAPEAAGAPSVFLFPPKPKDTLMISRTPEVTCVVVDVSHEDPEVKFNWYVDGVEVHNAKTKPREEQYNSTYRVVSVLTVLHQDWLNGKEYKCKVSNKALPAPIEKTISKAKGQPREPQVYTLPPSREEMTKNQVSLTCLVKGFYPSDIAVEWESNGQPENNYKTTPPVLDSDGSFFLYSKLTVDKSRWQQGNVFSCSVMHEALHNHYTQKSLSLSPGK
light: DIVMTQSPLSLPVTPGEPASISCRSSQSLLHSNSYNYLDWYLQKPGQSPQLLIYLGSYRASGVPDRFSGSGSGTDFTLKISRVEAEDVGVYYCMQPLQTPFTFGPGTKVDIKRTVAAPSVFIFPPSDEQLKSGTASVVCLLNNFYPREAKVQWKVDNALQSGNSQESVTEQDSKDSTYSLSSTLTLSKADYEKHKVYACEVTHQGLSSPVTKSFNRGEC
notes: Extended heavy chain VH-CH1-linker-VH-CH1-hinge-CH2-CH3; AF647-labeled in the flow cytometry assay; also called tetravalent 1E01
For B2, the “CXCL10 Release, EC50 (ug/mL), primary human dermal fibroblasts” value in assay [1] came out at 0.00231 µg/mL. For the same molecule, the “CXCL10 Release, EC50 (ug/mL), primary cyno fibroblasts” value in assay [2] turned out to be 0.00902 µg/mL. Moreover, the “NFkB Activation, EC50 (ug/mL), CT26 hEC-mTM-mIC NFkB luciferase reporter cells” value in assay [3] came out at 0.00173 µg/mL. Besides, the EC50 in assay [4] was 76 ng/mL; in assay [5], 73 ng/mL.
